# Data: US20130230533A1 (Regeneron, published 2013)
# T1: Monomeric human CD48-mmH (human)
# T1 chain: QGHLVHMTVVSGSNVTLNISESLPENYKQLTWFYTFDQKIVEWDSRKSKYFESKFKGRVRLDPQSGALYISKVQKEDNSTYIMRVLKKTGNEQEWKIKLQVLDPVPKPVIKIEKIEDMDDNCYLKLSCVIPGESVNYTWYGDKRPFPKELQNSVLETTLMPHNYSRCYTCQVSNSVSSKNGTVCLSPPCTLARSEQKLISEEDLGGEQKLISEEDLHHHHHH
# T2: Dimeric human CD48-mFc (human)
# T2 construct: the whole entry is the construct; also called hCD48-mFc
# T2 chain: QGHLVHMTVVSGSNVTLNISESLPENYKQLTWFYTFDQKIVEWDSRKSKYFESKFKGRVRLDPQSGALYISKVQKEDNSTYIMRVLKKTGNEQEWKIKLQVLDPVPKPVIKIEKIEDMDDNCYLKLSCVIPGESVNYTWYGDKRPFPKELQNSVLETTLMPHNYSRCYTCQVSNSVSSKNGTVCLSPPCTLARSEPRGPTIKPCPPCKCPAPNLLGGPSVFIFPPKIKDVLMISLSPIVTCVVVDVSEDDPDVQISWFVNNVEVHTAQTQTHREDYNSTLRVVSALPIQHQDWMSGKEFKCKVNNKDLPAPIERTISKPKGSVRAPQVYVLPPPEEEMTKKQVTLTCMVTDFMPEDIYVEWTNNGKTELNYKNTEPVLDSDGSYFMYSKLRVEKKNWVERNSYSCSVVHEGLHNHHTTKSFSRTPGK
# T3: Dimeric human CD48-mFc (human)
# T3 chain: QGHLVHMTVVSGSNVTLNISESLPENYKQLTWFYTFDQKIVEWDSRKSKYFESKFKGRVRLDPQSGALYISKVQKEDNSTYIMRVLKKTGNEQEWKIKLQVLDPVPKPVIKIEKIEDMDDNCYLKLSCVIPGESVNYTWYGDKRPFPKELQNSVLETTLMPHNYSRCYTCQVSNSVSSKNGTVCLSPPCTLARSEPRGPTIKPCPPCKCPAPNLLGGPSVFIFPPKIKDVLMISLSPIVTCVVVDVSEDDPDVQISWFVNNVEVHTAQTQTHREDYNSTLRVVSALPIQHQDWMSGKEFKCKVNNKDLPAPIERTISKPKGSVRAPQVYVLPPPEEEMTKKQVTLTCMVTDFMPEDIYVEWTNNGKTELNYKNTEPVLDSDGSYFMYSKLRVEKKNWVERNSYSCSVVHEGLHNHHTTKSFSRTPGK
# T4: Monomeric human CD48-mmH (human)
# T4 construct: also called soluble CD48 expressed with a myc-myc-hexa-histidine C-terminal tag [mmH]
# T4 chain: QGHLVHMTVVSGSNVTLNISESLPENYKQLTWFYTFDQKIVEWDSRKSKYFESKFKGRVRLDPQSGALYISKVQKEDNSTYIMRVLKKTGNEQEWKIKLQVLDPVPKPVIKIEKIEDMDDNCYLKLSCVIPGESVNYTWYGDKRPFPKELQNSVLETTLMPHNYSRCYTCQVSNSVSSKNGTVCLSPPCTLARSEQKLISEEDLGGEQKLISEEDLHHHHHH
# Columns and labels:
# Monomeric human CD48-mmH [1] = target: T1, Monomeric human CD48-mmH; test: SPR (Biacore), antibody captured by anti-Fc, CD48 in solution, 37 C
# Description: (§1) Measurements were conducted on a T100-2 BIACORE™ instrument (Biacore Life Sciences division of GE Healthcare, Piscataway, N.J.). Antibodies (either with mouse Fc [designated “H2M” or “H3M”] or human IgG4 Fc [designated “H4H”]) were captured through an anti-Fc chip surface, and CD48 was flowed over the surface either in a monomeric (soluble CD48 expressed with a myc-myc-hexa-histidine C-terminal tag [mmH]) or dimeric (soluble CD48 expressed with a C-terminal Fc fusion [mFc]) format.
# (§2) The soluble CD48 was applied to the flow cell in separate injections at different concentrations, and kinetic association (kₐ) and dissociation (kd) rate constants were determined by fits to the kinetic binding data using Biacore software. Binding dissociation equilibrium constants and dissociation half-times were calculated from the kinetic rate constants as: KD=kd/kₐ; t_{1/2}=(ln 2/kd) (units: ka=M⁻¹*s⁻¹; kd=s⁻¹; KD=M; T½=min) (Tables 3-6).
# Dimeric human CD48-mFc [2] = target: T2, Dimeric human CD48-mFc; test: as above
# Description: as §1, §2
# Dimeric human CD48-mFc [3] = target: T3, Dimeric human CD48-mFc; test: SPR (Biacore T100), 25 C, antibody captured by anti-Fc, dimeric CD48-mFc in solution
# Description: as §1, §2
# Monomeric human CD48-mmH [4] = target: T4, Monomeric human CD48-mmH; test: SPR (Biacore T100), 25 C, antibody captured by anti-Fc, monomeric CD48-mmH in solution
# Description: as §1, §2
Kd (Monomeric human CD48-mmH [1]) [nM],T½ (Monomeric human CD48-mmH [1]) [min],koff (Monomeric human CD48-mmH [1]) [s⁻¹],kon (Monomeric human CD48-mmH [1]) [M⁻¹ s⁻¹],Kd (Dimeric human CD48-mFc [2]) [nM],T½ (Dimeric human CD48-mFc [2]) [min],koff (Dimeric human CD48-mFc [2]) [s⁻¹],kon (Dimeric human CD48-mFc [2]) [M⁻¹ s⁻¹],Kd (Dimeric human CD48-mFc [3]) [nM],T½ (Dimeric human CD48-mFc [3]) [min],koff (Dimeric human CD48-mFc [3]) [s⁻¹],kon (Dimeric human CD48-mFc [3]) [M⁻¹ s⁻¹],Kd (Monomeric human CD48-mmH [4]) [nM],T½ (Monomeric human CD48-mmH [4]) [min],koff (Monomeric human CD48-mmH [4]) [s⁻¹],kon (Monomeric human CD48-mmH [4]) [M⁻¹ s⁻¹],Binder
–,–,–,–,–,–,–,–,0.0212,609,1.9e-05,894000,0.893,67,0.000174,194000,"H4H1713N (antibody, human IgG4, V domains shown, Human IgG4 Fc (prefix H4H)) VH: QVQLVQSGAEVKKPGASVKVSCKASGHTFTNYYIHWVRQAPGQGLEWMGITNPNDGNTRYAQKFQGRISMTWDTSTSTVFMELSSLKSEDTAVYYCAGLRYWFFDLWGRGTPVTVSS VL: DIQMTQSPSSVSASVGDRVTITCRASQDISSWLAWYQQKPGKAPNLLIFAASSLQSGVPSRFSGSGSGTDFTLTISSLQPEDFGTYYCQQTDNFPRTFGQGTKVEIN"
–,–,–,–,–,–,–,–,0.226,191,6.05e-05,268000,23.6,5,0.00248,105000,"H4H1764N (antibody, human IgG4, V domains shown, Human IgG4 Fc (prefix H4H)) VH: QVQLVESGGGVVQPGRSLRLSCAASGFTFSDYGMHWVRQAPGKGLEWVAVIWNDGSNKNYADSVKGRFSISSDSSKNTLYLHMNSLRAEDTAVYYCARSLYSTSPWYFDLWGRGTLVTVSS VL: not shown"
–,–,–,–,–,–,–,–,1.03,43,0.000266,259000,23.5,4,0.00285,121000,"H2M1764N (antibody, mouse IgG2, V domains shown, Human variable domains, mouse IgG2 Fc (prefix H2M)) VH: QVQLVESGGGVVQPGRSLRLSCAASGFTFSDYGMHWVRQAPGKGLEWVAVIWNDGSNKNYADSVKGRFSISSDSSKNTLYLHMNSLRAEDTAVYYCARSLYSTSPWYFDLWGRGTLVTVSS VL: not shown"

# Second part, the binder before the results:
Binder,Kd (Monomeric human CD48-mmH [1]) [nM],T½ (Monomeric human CD48-mmH [1]) [min],koff (Monomeric human CD48-mmH [1]) [s⁻¹],kon (Monomeric human CD48-mmH [1]) [M⁻¹ s⁻¹],Kd (Dimeric human CD48-mFc [2]) [nM],T½ (Dimeric human CD48-mFc [2]) [min],koff (Dimeric human CD48-mFc [2]) [s⁻¹],kon (Dimeric human CD48-mFc [2]) [M⁻¹ s⁻¹],Kd (Dimeric human CD48-mFc [3]) [nM],T½ (Dimeric human CD48-mFc [3]) [min],koff (Dimeric human CD48-mFc [3]) [s⁻¹],kon (Dimeric human CD48-mFc [3]) [M⁻¹ s⁻¹],Kd (Monomeric human CD48-mmH [4]) [nM],T½ (Monomeric human CD48-mmH [4]) [min],koff (Monomeric human CD48-mmH [4]) [s⁻¹],kon (Monomeric human CD48-mmH [4]) [M⁻¹ s⁻¹]
"H2M1713N (antibody, mouse IgG2, V domains shown, Human variable domains, mouse IgG2 Fc (H2M)) VH: QVQLVQSGAEVKKPGASVKVSCKASGHTFTNYYIHWVRQAPGQGLEWMGITNPNDGNTRYAQKFQGRISMTWDTSTSTVFMELSSLKSEDTAVYYCAGLRYWFFDLWGRGTPVTVSS VL: DIQMTQSPSSVSASVGDRVTITCRASQDISSWLAWYQQKPGKAPNLLIFAASSLQSGVPSRFSGSGSGTDFTLTISSLQPEDFGTYYCQQTDNFPRTFGQGTKVEIN",2.74,18,0.000644,235000,0.0663,140,8.27e-05,1.25e+06,–,–,–,–,–,–,–,–
"H2M1713N (antibody, mouse IgG2, V domains shown, Human variable domains, mouse IgG2 Fc (prefix H2M)) VH: QVQLVQSGAEVKKPGASVKVSCKASGHTFTNYYIHWVRQAPGQGLEWMGITNPNDGNTRYAQKFQGRISMTWDTSTSTVFMELSSLKSEDTAVYYCAGLRYWFFDLWGRGTPVTVSS VL: DIQMTQSPSSVSASVGDRVTITCRASQDISSWLAWYQQKPGKAPNLLIFAASSLQSGVPSRFSGSGSGTDFTLTISSLQPEDFGTYYCQQTDNFPRTFGQGTKVEIN",–,–,–,–,–,–,–,–,0.0134,1040,1.11e-05,826000,1.35,53,0.000217,161000
"H2M1764N (antibody, mouse IgG2, V domains shown, Human variable domains, mouse IgG2 Fc (H2M)) VH: QVQLVESGGGVVQPGRSLRLSCAASGFTFSDYGMHWVRQAPGKGLEWVAVIWNDGSNKNYADSVKGRFSISSDSSKNTLYLHMNSLRAEDTAVYYCARSLYSTSPWYFDLWGRGTLVTVSS VL: not shown",94.7,1,0.016,169000,0.586,28,0.000412,702000,–,–,–,–,–,–,–,–
"H2M1710N (antibody, mouse IgG2, V domains shown, Human variable domains, mouse IgG2 Fc (H2M)) VH: QVQLVQSGADMKKPGASVRVSCKASGYTFTDYFIHWVRQAPGQGPEWMGWINPDSGATNYAQQFQGRVTMTRDTSISATYMEMSRLRSDDTAVFYCARDKDGSGWYLDDWGQGTLVTVSS VL: EIVLTQSPATLSLSPGERATLSCRASQSVNIYLAWYQQKPGQAPRLLIYDASNRASGIPARFSGSGSGTDFTLTISSLEPEDFAVYYCQQRSNWPPSITFGQGTRLEIK",153,2,0.0052,34000,0.885,27,0.000426,481000,–,–,–,–,–,–,–,–
